Positions count from the first letter of the chain named.
B1: 2B.1.3.10 (antibody, human IgG1, kappa, V domains shown)
VH: EVQLVESGGGLVQPGGSLRLSCAASGFPFTSQGISWVRQAPGKGLEWVGRTHLGDGSTNYADSVKGRFTISADTSKNTAYLQMNSLRAEDTAVYYCARTYGIYDTYDKYTEYVMDYWGQGTLVTVSS
VL: DIQMTQSPSSLSASVGDRVTITCRASQDVDTSLAWYKQKPGKAPKLLIYSASFLYSGVPSRFSGSGSGTDFTLTISSLQPEDFATYYCQQSTGHPQTFGQGTKVEIKR
B2: 2B.1.25 (antibody, human IgG1, kappa, V domains shown)
VH: B1 VH with P28T, Q32T, T51W, L53P, G54W, D55M, T105L, D107V, K108D
VL: B1 VL
B3: 2B.1.49 (antibody, human IgG1, kappa, V domains shown)
VH: B1 VH with P28T, Q32T, T51L, H52S, L53F, G54F, D55S, T105L, D107V, K108D
VL: B1 VL
B4: 2B.1.52 (antibody, human IgG1, kappa, V domains shown)
VH: B1 VH with P28T, Q32T, T51F, H52S, T105L, D107V, K108D
VL: B1 VL
B5: 2B.1.38 (antibody, human IgG1, kappa, V domains shown)
VH: B1 VH with P28T, Q32T, T51F, H52W, L53A, G54Y, T105L, D107V, K108D
VL: B1 VL
B6: 2B.1.3.2 (antibody, human IgG1, kappa, V domains shown)
VH: B1 VH with P28T, Q32T, K108N
VL: B1 VL
B7: 2B.1.44 (antibody, human IgG1, kappa, V domains shown)
VH: B1 VH with P28T, Q32T, T51W, H52W, L53S, G54W, D55G, T105L, D107V, K108D
VL: B1 VL
B8: 2B.1.65 (antibody, human IgG1, kappa, V domains shown)
VH: B1 VH with P28T, Q32T, T51Y, H52N, L53A, G54Y, D55T, T105L, D107V, K108D
VL: B1 VL
B9: 2B.1.93 (antibody, human IgG1, kappa, V domains shown)
VH: B1 VH with P28T, Q32T, T51I, H52D, L53N, G54Y, D55W, T105L, D107V, K108D
VL: B1 VL
B10: 2B.1.3.12 (antibody, human IgG1, kappa, V domains shown)
VH: B1 VH with Q32T, K108M
VL: B1 VL
B11: 2B.1.35 (antibody, human IgG1, kappa, V domains shown)
VH: B1 VH with P28T, Q32T, T51W, L53P, G54F, D55R, T105L, D107V, K108D
VL: B1 VL
B12: 2B.1.95 (antibody, human IgG1, kappa, V domains shown)
VH: B1 VH with P28T, Q32T, T51L, H52I, L53F, G54F, D55T, T105L, D107V, K108D
VL: B1 VL
B13: 2B.1.72 (antibody, human IgG1, kappa, V domains shown)
VH: B1 VH with P28T, Q32T, T51V, L53P, G54F, D55E, T105L, D107V, K108D
VL: B1 VL
B14: 2B.1.14 (antibody, human IgG1, kappa, V domains shown)
VH: B1 VH with P28T, Q32T, T51L, H52W, L53Y, G54F, T105L, D107V, K108D
VL: B1 VL
B15: 2B.1.20 (antibody, human IgG1, kappa, V domains shown)
VH: B1 VH with P28T, Q32T, T51L, H52D, L53V, G54F, D55W, T105L, D107V, K108D
VL: B1 VL
B16: 2B.1.94 (antibody, human IgG1, kappa, V domains shown)
VH: B1 VH with P28T, Q32T, T51L, H52V, L53F, G54F, D55S, T105L, D107V, K108D
VL: B1 VL
B17: 2B.1.73 (antibody, human IgG1, kappa, V domains shown)
VH: B1 VH with P28T, Q32T, T51M, H52I, L53F, G54Y, D55N, T105L, D107V, K108D
VL: B1 VL
B18: 2B.1.3.6 (antibody, human IgG1, kappa, V domains shown)
VH: B1 VH with P28T, Q32T, K108E
VL: B1 VL
B19: 2B.1.86 (antibody, human IgG1, kappa, V domains shown)
VH: B1 VH with P28T, Q32T, T51L, H52S, L53F, G54W, D55T, T105L, D107V, K108D
VL: B1 VL
B20: 2B.1.88 (antibody, human IgG1, kappa, V domains shown)
VH: B1 VH with P28T, Q32T, T51I, H52W, L53M, G54F, D55T, T105L, D107V, K108D
VL: B1 VL
B21: 2B.1.78 (antibody, human IgG1, kappa, V domains shown)
VH: B1 VH with P28T, Q32T, T51L, H52S, L53F, G54Y, D55S, T105L, D107V, K108D
VL: B1 VL
B22: 2B.1.80 (antibody, human IgG1, kappa, V domains shown)
VH: B1 VH with P28T, Q32T, T51Y, H52W, L53A, G54F, D55S, T105L, D107V, K108D
VL: B1 VL
B23: 2B.1.50 (antibody, human IgG1, kappa, V domains shown)
VH: B1 VH with P28T, Q32T, T51L, H52N, L53F, G54Y, D55S, T105L, D107V, K108D
VL: B1 VL
B24: 2B.1.28 (antibody, human IgG1, kappa, V domains shown)
VH: B1 VH with P28T, Q32T, T51F, H52W, L53A, G54W, D55S, T105L, D107V, K108D
VL: B1 VL
B25: 2B.1.1 (antibody, human IgG1, kappa, V domains shown)
VH: B1 VH with P28T, Q32T, T51Y, H52W, L53A, G54W, T105L, D107V, K108D
VL: B1 VL
B26: 2B.1.32 (antibody, human IgG1, kappa, V domains shown)
VH: B1 VH with P28T, Q32T, T51W, H52V, L53G, G54F, D55T, T105L, D107V, K108D
VL: B1 VL
B27: 2B.1.9 (antibody, human IgG1, kappa, V domains shown)
VH: B1 VH with P28T, Q32T, T51Y, L53P, G54Y, D55L, T105L, D107V, K108D
VL: B1 VL
B28: 2B.1.81 (antibody, human IgG1, kappa, V domains shown)
VH: B1 VH with P28T, Q32T, T51V, H52N, L53N, G54F, D55Y, T105L, D107V, K108D
VL: B1 VL
B29: 2B.1.30 (antibody, human IgG1, kappa, V domains shown)
VH: B1 VH with P28T, Q32T, T51V, H52S, L53F, G54F, D55S, T105L, D107V, K108D
VL: B1 VL
B30: 2B.1.3.4 (antibody, human IgG1, kappa, V domains shown)
VH: B1 VH with P28T, Q32T, T105I, D107G, K108G
VL: B1 VL
B31: 2B.1.33 (antibody, human IgG1, kappa, V domains shown)
VH: B1 VH with P28T, Q32T, T51Y, L53P, G54F, D55H, T105L, D107V, K108D
VL: B1 VL
B32: 2B.1.3.8 (antibody, human IgG1, kappa, V domains shown)
VH: B1 VH with Q32L, T105I, D107E
VL: B1 VL
B33: 2B.1.82 (antibody, human IgG1, kappa, V domains shown)
VH: B1 VH with P28T, Q32T, T51I, H52N, L53F, G54F, D55S, T105L, D107V, K108D
VL: B1 VL
B34: 2B.1.55 (antibody, human IgG1, kappa, V domains shown)
VH: B1 VH with P28T, Q32T, T51V, H52D, L53V, G54F, D55W, T105L, D107V, K108D
VL: B1 VL
B35: 2B.1.74 (antibody, human IgG1, kappa, V domains shown)
VH: B1 VH with P28T, Q32T, T51Y, L53P, G54F, D55R, T105L, D107V, K108D
VL: B1 VL
B36: 2B.1.71 (antibody, human IgG1, kappa, V domains shown)
VH: B1 VH with P28T, Q32T, T51V, H52W, L53M, G54F, T105L, D107V, K108D
VL: B1 VL

How the values were obtained:
[1] = biological target: FGFR2-IIIb (human) (UniProt P21802); assay: SPR, IgG
Chain of FGFR2-IIIb (human) (P21802 other isoform, or with tags, fused parts or gaps limits assumed): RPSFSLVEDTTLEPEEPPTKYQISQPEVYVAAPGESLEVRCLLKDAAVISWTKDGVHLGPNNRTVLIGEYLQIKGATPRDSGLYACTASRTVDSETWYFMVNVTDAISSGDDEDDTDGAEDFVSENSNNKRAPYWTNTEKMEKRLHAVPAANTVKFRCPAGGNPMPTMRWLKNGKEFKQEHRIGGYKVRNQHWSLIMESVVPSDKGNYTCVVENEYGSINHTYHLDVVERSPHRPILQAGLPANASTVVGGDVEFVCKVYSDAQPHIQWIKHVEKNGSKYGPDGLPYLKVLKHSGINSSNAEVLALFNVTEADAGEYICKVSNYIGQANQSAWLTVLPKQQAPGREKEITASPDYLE

[2] = biological target: FGFR2-IIIb (human) (UniProt P21802); assay: blocking ELISA: FGFR2-IIIb-Fc captured on an anti-human Fc plate, antibody titrated, FGF-7 (with heparin) is the blocked ligand, bound FGF-7 read as OD450
[3] = biological target: FGFR2-IIIb (human) (UniProt P21802); assay: SPR (Biacore T100), IgG captured by anti-human Fc, FGFR flowed
[4] = biological target: FGFR3-IIIb (human); assay: as above
Chain of FGFR3-IIIb (human) (chain, as listed by the source limits assumed): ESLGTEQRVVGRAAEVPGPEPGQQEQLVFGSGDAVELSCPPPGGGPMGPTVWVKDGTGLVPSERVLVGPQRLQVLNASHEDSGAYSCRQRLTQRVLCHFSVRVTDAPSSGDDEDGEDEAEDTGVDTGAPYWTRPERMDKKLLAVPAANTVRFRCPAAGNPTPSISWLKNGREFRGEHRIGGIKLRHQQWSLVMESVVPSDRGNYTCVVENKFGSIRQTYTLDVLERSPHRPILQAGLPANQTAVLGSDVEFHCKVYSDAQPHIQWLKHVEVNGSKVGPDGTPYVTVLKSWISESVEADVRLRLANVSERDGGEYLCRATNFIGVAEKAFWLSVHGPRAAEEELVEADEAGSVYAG

[5] = biological target: FGFR3-IIIb (human); assay: blocking ELISA: FGFR3-IIIb-Fc captured on an anti-human Fc plate, antibody titrated, FGF-1 (with heparin) is the blocked ligand, bound FGF-1 read as OD450
[6] = biological target: FGFR2-IIIb (human) (UniProt P21802); assay: SPR
[7] = biological target: FGFR3-IIIb (human); assay: SPR

| Binder | Kd [3] | further results |
| --- | --- | --- |
| B1 | 2.9 nM | Kd [1]: 2.9 nM; IC50 (read off the curve) [2]: 2 nM; Kd [4]: 0.11 nM; IC50 (read off the curve) [5]: 1 to 2 nM |
| B2 | 2.3 nM | – |
| B3 | 1.3 nM | – |
| B4 | 3.9 nM | – |
| B5 | 1.1 nM | – |
| B6 | – | Kd [1]: 6.6 nM |
| B7 | 3.6 nM | – |
| B8 | 2.7 nM | – |
| B9 | 5.1 nM | – |
| B10 | 3 nM | Kd [1]: 3 nM; IC50 (read off the curve) [2]: 2 nM; Kd [6]: 3 nM; Kd [7]: 0.5 nM; Kd [4]: 0.5 nM; IC50 (read off the curve) [5]: 1 to 2 nM |
| B11 | 9.4 nM | – |
| B12 | 1.8 nM | Kd [4]: 0.19 nM |
| B13 | 3.5 nM | – |
| B14 | 1.6 nM | – |
| B15 | 1.2 nM | – |
| B16 | 3.1 nM | – |
| B17 | 1.4 nM | Kd [4]: 0.09 nM |
| B18 | – | Kd [1]: 5.9 nM |

| Binder | Kd [3] | further results |
| --- | --- | --- |
| B19 | 1.3 nM | – |
| B20 | 0.64 nM | Kd [4]: 0.05 nM |
| B21 | 3.2 nM | – |
| B22 | 17 nM | – |
| B23 | 2 nM | – |
| B24 | 1.8 nM | – |
| B25 | 0.29 nM | Kd [6]: 0.29 nM; Kd [4]: 0.09 nM |
| B26 | 1.2 nM | Kd [4]: 0.06 nM |
| B27 | 1.4 nM | – |
| B28 | 2.1 nM | – |
| B29 | 4.1 nM | – |
| B30 | – | Kd [1]: 5.8 nM |
| B31 | 15 nM | – |
| B32 | – | Kd [1]: 1.4 nM |
| B33 | 4.9 nM | – |
| B34 | 5.9 nM | – |
| B35 | 1.4 nM | – |
| B36 | 1.6 nM | – |
